Experimental data published in patent US20210238298A1 (ALLIGATOR BIOSCIENCE, published 2021).

T1: murine OX40 (murine, UniProt P47741 20-211, limits assumed)
T1 sequence (looked up): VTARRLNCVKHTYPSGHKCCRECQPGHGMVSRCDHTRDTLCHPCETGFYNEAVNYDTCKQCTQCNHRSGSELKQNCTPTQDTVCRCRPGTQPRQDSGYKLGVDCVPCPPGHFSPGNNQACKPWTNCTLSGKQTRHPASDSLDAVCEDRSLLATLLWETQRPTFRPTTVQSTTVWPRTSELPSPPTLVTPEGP

T2: OX40 chimera 1549: human OX40 with mouse domains 1A and 4B and non-annotated extracellular region (aa 30-65 … (human; mouse, UniProt P47741 26-61; P47741 125-211)
T2 construct: domain: 1A;domain: 4B and non-annotated extracellular region; Limits derived as for 1544
T2 sequence: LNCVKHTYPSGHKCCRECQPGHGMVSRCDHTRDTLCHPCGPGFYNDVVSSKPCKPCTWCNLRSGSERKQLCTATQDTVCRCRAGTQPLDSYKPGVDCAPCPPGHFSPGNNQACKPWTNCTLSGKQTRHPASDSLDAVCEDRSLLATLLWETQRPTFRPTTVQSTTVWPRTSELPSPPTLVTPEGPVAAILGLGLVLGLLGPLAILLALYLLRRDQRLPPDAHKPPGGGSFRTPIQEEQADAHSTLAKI

T3: OX40 chimera 1548: human OX40 with mouse module 3 and domains 4A and 4B (aa 108-167), on FreeStyle 293-F cells (human; mouse, UniProt P47741 104-165)
T3 construct: domain: module 3, 4A and 4B; Limits derived as for 1544
T3 sequence: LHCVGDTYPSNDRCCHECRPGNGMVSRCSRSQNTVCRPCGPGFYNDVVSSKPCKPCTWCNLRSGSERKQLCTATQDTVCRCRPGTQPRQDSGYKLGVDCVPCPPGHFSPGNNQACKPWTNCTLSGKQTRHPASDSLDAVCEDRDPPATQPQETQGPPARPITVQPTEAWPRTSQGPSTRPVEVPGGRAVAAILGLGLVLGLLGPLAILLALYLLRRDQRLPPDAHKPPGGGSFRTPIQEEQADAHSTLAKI


Legend:
[1] = molecular target: T4, recombinant human CD137-Fc (R&D #838-4B) (human, UniProt Q07011 24-186); assay: ELISA
T4 construct: Bought; also called Human CD137 (R&D systems); CD137 (R&D Systems); not shown: Fc part, not described
T4 sequence (Q07011 24-186 limits assumed): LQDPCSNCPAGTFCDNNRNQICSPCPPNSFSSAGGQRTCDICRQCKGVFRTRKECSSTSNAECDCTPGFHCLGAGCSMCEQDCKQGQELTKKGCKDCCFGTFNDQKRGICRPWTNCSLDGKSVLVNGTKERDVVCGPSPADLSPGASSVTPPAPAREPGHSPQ

[2] = molecular target: T5, CD40 (Ancell) (UniProt P25942 21-193); assay: ELISA
T5 construct: also called CD40-Fc (Ancell #504-820); not shown: Fc part, not described
T5 sequence (P25942 21-193 limits assumed): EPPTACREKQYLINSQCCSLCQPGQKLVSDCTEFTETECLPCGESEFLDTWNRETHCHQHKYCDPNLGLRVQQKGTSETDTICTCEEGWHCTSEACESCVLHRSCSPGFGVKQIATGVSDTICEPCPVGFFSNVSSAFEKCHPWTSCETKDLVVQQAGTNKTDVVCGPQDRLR

[3] = molecular target: T1, murine OX40; assay: ELISA
[4] = molecular target: T2, OX40 chimera 1549: human OX40 with …; assay: flow cytometry, 293-F transfectants
Procedure: (§1) The mouse/human chimeras were transiently transfected into FreeStyle 293-F cells (Invitrogen), incubated 48 hours in FreeStyle 293 expression medium (Invitrogen) 37 C, 8% CO₂, 135 rpm. The transfected cells were incubated with human OX40 antibodies, human OX40L (hOX40L, RnD Systems), mouse OX40L (mOX40L, RnD Systems) and controls for 30 min 4° C. and then detected with a-huIgG-PE (Jackson Immunoresearch) 30 min 4° C. Cells were analyzed with FACS Verse (BD Biosciences). Binding to the different chimeric constructs were calculated as relative (mean fluorescence intensity) MFI compared to the binding of the isotype control.

[5] = molecular target: T3, OX40 chimera 1548: human OX40 with …; assay: flow cytometry, 293-F transfectants
Procedure: as §1

[6] = molecular target: T6, soluble murine CTLA-4 (R&D systems) (murine, UniProt P09793 36-162); assay: not described
T6 construct: Bought
Procedure: In brief, 96-well flat bottom plate high binding plates (Greiner #655074) were coated with human CTLA-4 (Fitzgerald) incubating overnight at 4° C.
The sample (exemplary CD86 mutant) was pre-incubated at room temperature for 1 hour with soluble biotinylated human CTLA4 (Fitzgerald #30R-CD152) or soluble murine CTLA-4 (R&D systems) at different concentrations (serial dilutions ¼ from 30000 to 0.3 ng/ml).
The mixture was then added to the blocked wells in the ELISA plate. Detection was performed with Streptavidin-HRP (Pierce, #21126) and the plates were subsequently developed using SuperSignal Pico Chemiluminescent substrate (Thermo Scientific, #37069) and detected with Envision reader (Perkin Elmer).

[7] = molecular target: T7, CTLA4-Fc (Fitzgerald, #30R-CD152) (human, UniProt P16410 38-152); assay: ELISA on coated CTLA4-Fc and CD28-Fc
T7 construct: Bought; also called human CTLA-4 (Fitzgerald); biotinylated-CTLA4; not shown: Fc part of the bought fusion, not described
T7 sequence (P16410 38-152 limits assumed): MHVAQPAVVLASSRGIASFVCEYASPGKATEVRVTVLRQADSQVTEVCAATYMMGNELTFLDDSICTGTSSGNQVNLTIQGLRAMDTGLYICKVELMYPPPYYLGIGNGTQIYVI
Procedure: 96-well flat bottom high binding plates (Greiner, #655074) were coated with either CTLA4-Fc (Fitzgerald, #30R-CD152) or CD28-Fc (R&D systems, 342-CD) by incubating overnight at 4° C. […] The plates were washed again and sample or controls (serially diluted ⅕ from 200-0.001 μg/ml) were added to the wells. The samples were incubated for 1 h at room temperature and then washed. Detection antibody, goat-anti-human IgG Fcγ-HRP (Jackson, #109-035-098) was added and the plates were subsequently developed using SuperSignal Pico Chemiluminescent substrate (Thermo Scientific, #37069) and detected with an Envision reader (Perkin Elmer). EC50 values were calculated for both CTLA4 and CD28. The binding ratio (EC50 binding ratio=[EC50 for CD28]÷[EC50 for CTLA-4]) was calculated for each polypeptide and is shown in Table 1.1.

[8] = molecular target: T7, CTLA4-Fc (Fitzgerald, #30R-CD152); assay: SPR on immobilised CTLA4-Fc and CD28-Fc
Procedure: (§2) Either CTLA4-Fc (Fitzgerald, #30R-CD152) or CD28-Fc (R&D Systems, 342-CD) was immobilized to the Biacore™ sensor chip, CM5, using conventional amine coupling. The CD86 mutant molecules and controls (serially diluted ½ 100-1.5 nM) were analyzed for binding in HBS-P (GE, BR-1003-68) at a flow rate of […]. The association was followed for 3 minutes and the dissociation for 10 minutes. Regeneration was performed twice using 5 mM NaOH for 30 seconds. The kinetic parameters and the affinity constants were calculated using BIAevaluation 4.1 software (Table 1.3).

[9] = molecular target: T7, CTLA4-Fc (Fitzgerald, #30R-CD152); assay: SPR (Biacore), immobilised CTLA4-Fc
Procedure: as §2

Row | binding result [6] | EC50 binding ratio ([EC50 for CD28]/[EC50 for CTLA-4]) [7] | Kd binding ratio ([Kd for CD28]/[Kd for CTLA-4]) [8] | Binder | also measured
1 | – | – | – | anti-OX40 antibody 1170/1171 (antibody, V domains shown, Tested as IgG) VH: EVQLLESGGGLVQPGGSLRLSCAASGFTFGGYYMSWVRQAPGKGLEWVSYIPGSGGSTYYADSVKGRFTISRDNSKNTLYLQMNSLRAEDTAVYYCARYDYYWMDYWGQGTLVTVSS VL: DIQMTQSPSSLSASVGDRVTITCRASQSISSYLNWYQQKPGKAPKLLIYAASSLQSGVPSRFSGSGSGTDFTLTISSLQPEDFATYYCQQGHGSYPHTFGQGTKLEIK | binding result [1]: no binding; binding result [2]: no binding; binding result [3]: no binding; relative MFI vs isotype control [4]: 12.1; relative MFI vs isotype control [5]: 20.3
2 | – | – | – | anti-OX40 antibody 1490/1135 (antibody, V domains shown, Tested as IgG) VH: EVQLLESGGGLVQPGGSLRLSCAASGFTFSSYAMSWVRQAPGKGLEWVSGISYYGGYTYYADSVKGRFTISRDNSKNTLYLQMNSLRAEDTAVYYCARYYPHHYIDYWGQGTLVTVSS VL: not shown | binding result [1]: no binding; binding result [2]: no binding; binding result [3]: no binding; relative MFI vs isotype control [5]: 1.1
3 | binds | 7.7 | 5.1 | CD86 mutant 910 (ligand, Variant of the CD86 extracellular domain) LKIQAYFNETADLPCQFANSQNQSLSELVVFWQDQENLVLNEVYLGKEKFDSVDSKYMGRTSFDSDSWTLRLHNLQIKDKGIYQCIIHHKKPTGMVKIHEMNSELSVLA | –
4 | binds | 16.2 | 0.8 | CD86 mutant 906 (ligand, Variant of the CD86 extracellular domain) LKIQAYINETADLPCQFANSQNLSLSELVVFWQDQENLVLNEVYLGKERFDSVDSKYMGRTSFDSDSWTLRLHNLQIKDKGFYQCIIHHKKPTGLVKIHEMNSELSVLA | –
5 | binds | 30.5 | 5.6 | CD86 mutant 907 (ligand, Variant of the CD86 extracellular domain) LKIQAYFNETADLPCQFANSQNQSLSELVVFWQDQENLVLNEVYLGKEKFDSVHSKYMGRTSFDSDSWTLRLHNLQIKDKGLYQCIIHHKKPTGMIKIHEMNSELSVLA | –
6 | binds | 17.2 | 2.7 | CD86 mutant 901 (ligand, Variant of the CD86 extracellular domain) LKIQAYFNETADLPCQFANSQNLTLSELVVFWQDQENLVLNEVYLGKEKFDSVHSKYMGRTSFDSDSWTLRLHNLQIKDKGIYQCVIHHKKPTGMIKIHEMNSELSVLT | –
7 | binds | 6.2 | 4.7 | CD86 mutant 908 (ligand, Variant of the CD86 extracellular domain) LKIQAYFNETADLPCQFANSQNQSLSELVVFWQDQENLVLNEVYLGKEKFDSVHSKYMGRTSFDSDSWTLRLHNLQIKDKGIYQCIIHHKKPTGMVKIHEMNSELSVLA | –
8 | binds | 2 | 5.5 | CD86 mutant 938 (ligand, Variant of the CD86 extracellular domain) LKIQAYFNETADLPCQFANSQNQSLSELVVFWQDQENLILNEVYLGKEKFDSVHSKYMGRTSFDSDSWTLRLHNLQIKDKGIYQCIIHHKKPTGMVKIHQMNSELSVLA | –
9 | binds | 12.2 | 6.8 | CD86 mutant 904 (ligand, Variant of the CD86 extracellular domain) LKIQAYFNETADLPCQFANSQNQSLSELIVFWQDQENLVLNEVYLGKERFDAVDSKYMGRTSFDSDSWTLRLHNLQIKDKGIYQCIIHHKKPSGMVKIHQMDSELSVLA | –
10 | binds | 9.9 | 1.9 | CD86 mutant 915 (ligand, Variant of the CD86 extracellular domain) LKIQAYFNETADLPCQFANSQNQSLSELVVFWQDQENLILNEVYLGKEKFDSVDSKYMGRTSFDSDSWTLRLHNLQIKDKGFYQCIIHHKKPSGLIKIHQMDSELSVLA | –
11 | – | 3.4 | 1.6 | human wild-type CD86 (monomeric soluble extracellular domain) (ligand, also called wild type protein) APLKIQAYFNETADLPCQFANSQNQSLSELVVFWQDQENLVLNEVYLGKEKFDSVHSKYMGRTSFDSDSWTLRLHNLQIKDKGLYQCIIHHKKPTGMIRIHQMNSELSVLA | Kd [9]: 50 nM; koff [9]: 0.023 s⁻¹; kon [9]: 460000 M⁻¹ s⁻¹
12 | – | – | – | anti-OX40 antibody 1514/1515 (antibody, V domains shown, Tested as IgG) VH: EVQLLESGGGLVQPGGSLRLSCAASGFTFGYYYMSWVRQAPGKGLEWVSGISSYGSYTYYADSVKGRFTISRDNSKNTLYLQMNSLRAEDTAVYYCARSGYSNWANSFDYWGQGTLVTVSS VL: DIQMTQSPSSLSASVGDRVTITCRASQSISSYLNWYQQKPGKAPKLLIYAASSLQSGVPSRFSGSGSGTDFTLTISSLQPEDFATYYCQQGDYTLFTFGQGTKLEIK | binding result [1]: no binding; binding result [2]: no binding; binding result [3]: no binding; relative MFI vs isotype control [4]: 10.6; relative MFI vs isotype control [5]: 17.2
